Laboratory results as given in US20180201649A1 (YALE UNIVERSITY, published 2018).

Target: T1, endothelial nitric oxide synthase (eNOS) (bovine (endogenous in BAEC), UniProt P29473 2-1205)
T1 sequence (looked up): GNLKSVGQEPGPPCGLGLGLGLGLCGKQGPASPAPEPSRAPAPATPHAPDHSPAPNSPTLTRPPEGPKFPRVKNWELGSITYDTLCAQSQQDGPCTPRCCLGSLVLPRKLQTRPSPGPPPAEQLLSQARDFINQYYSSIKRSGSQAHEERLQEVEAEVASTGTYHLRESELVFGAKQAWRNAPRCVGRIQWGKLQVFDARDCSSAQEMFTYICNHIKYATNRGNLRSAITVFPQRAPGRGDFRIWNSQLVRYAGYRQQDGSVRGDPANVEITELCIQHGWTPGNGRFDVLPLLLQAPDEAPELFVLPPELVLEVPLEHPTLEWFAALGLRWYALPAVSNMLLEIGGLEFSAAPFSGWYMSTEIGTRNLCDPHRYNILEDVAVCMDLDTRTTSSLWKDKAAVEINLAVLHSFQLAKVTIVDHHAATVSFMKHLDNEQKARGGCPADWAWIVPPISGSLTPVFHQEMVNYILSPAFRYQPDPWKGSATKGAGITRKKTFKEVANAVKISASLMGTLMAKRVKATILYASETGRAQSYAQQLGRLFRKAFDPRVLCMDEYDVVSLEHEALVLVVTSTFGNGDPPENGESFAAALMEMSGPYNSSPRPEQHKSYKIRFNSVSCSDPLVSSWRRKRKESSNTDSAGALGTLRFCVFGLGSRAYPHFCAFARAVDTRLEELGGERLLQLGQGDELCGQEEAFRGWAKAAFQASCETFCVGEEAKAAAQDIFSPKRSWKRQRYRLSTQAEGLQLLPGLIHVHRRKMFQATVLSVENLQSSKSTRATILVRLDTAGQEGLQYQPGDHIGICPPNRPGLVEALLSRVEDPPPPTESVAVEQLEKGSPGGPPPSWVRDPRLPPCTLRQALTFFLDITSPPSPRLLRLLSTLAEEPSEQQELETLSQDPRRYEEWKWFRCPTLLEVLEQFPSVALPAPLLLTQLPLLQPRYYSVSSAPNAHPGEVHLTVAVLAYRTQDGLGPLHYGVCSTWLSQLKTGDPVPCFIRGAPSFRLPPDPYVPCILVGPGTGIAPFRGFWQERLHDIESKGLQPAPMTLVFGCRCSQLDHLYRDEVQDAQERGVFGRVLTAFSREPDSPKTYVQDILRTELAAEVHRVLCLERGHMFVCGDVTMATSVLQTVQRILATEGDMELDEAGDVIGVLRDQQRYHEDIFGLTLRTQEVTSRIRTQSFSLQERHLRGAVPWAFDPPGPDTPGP
Assay: cell-based or functional assay

Binder | EC50 of inhibition of VEGF-induced NO release in BAEC
RQIKIWFQNRRMKWKKDGIWKASFTTFTVTKYWFYR [AP-Cav] | 1.8 µM
RRPPRDGIWKASFTTFTVTKYWFYR [Endo5-Cav] | 7.5 µM
